Measurements reported in patent US20240343810A1 (published 2024).

Tests used:
[1] = target: T1, human ICOS-mFc (Chimerigen) (human, UniProt Q9Y6W8 21-140); test: HTRF, human ICOS-mFc, competitor human B7-H2-Alexa 647, n1
T1 construct: Bought; also called recombinant human ICOS protein; hICOS; not shown: mouse Fc of the bought fusion
T1 sequence: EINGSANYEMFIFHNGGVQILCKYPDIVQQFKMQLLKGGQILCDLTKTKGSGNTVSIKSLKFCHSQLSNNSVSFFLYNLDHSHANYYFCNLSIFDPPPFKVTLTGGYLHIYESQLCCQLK
Protocol: (§1) 5 μl of human ICOS-mFc (Chimerigen) at 20 nM (5 nM final) or 5 ul of mouse ICOS-mFc (Chimerigen) at 4 nM (1 nM final) were added to relevant assay wells. Plate was incubated for 1 hour (hr) at room temperature (RT).
(§2) After incubation, assay was read on Envision plate reader (Perkin Elmer) using a standard HTRF protocol. 620 nm and 665 nm channel values were exported to Microsoft Excel and % Delta-F and % Neutralisation calculations performed. Titration curves and IC50 values [M] were plotted using Graphpad (Prism). IC50 values were calculated by first transforming the data using equation X=Log(X). The transformed data was then fitted using nonlinear regression, using fitting algorithm, log (inhibitor) vs. response—variable slope (four parameters).

[2] = target: T2, mouse ICOS-mFc (Chimerigen) (mouse, UniProt Q9WVS0 21-141, limits assumed); test: DELFIA ELISA on coated mouse ICOS-mFc, mean
T2 construct: Bought; also called recombinant mouse ICOS protein; mICOS; not shown: mouse Fc of the bought fusion
T2 sequence: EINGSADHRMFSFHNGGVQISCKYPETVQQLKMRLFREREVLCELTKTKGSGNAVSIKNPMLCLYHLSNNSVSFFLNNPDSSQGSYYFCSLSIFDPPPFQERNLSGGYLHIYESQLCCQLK
Protocol: (§3) Recombinant ICOS proteins, human ICOS-mFc or mouse ICOS-mFc (Chimerigen) were diluted in 1×PBS and added to Black Hi-bind plates (Griener) at 1 μg/ml, 50 μl/well. Recombinant PD-L1 proteins, human PD-L1-Flag-His or mouse-His were diluted in 1×PBS and added to Black Hi-bind plates (Griener) at 4 μg/ml, 50 μl/well. The plates were left overnight at 4° C. The next day plates were washed 3× with 300 μl/well of 1×PBS+0.1% Tween and blocked with 200 ul/well of 1×PBS+1% BSA blocking buffer for 1 hr at RT on a plate shaker. Plates were washed 3× with 300 μl/well of 1×PBS+0.1% Tween.
(§4) However, human-PD-L1 mAb² antibodies were diluted in 1×PBS+0.1% BSA buffer and diluted 1 in 2 from a starting working concentration of 0.066 μM over an 11 point titration. Titrated antibodies were added to the plates, 50 μl/well and left to incubate for 1 hr at R.T on a plate shaker. Plates were washed 3× with 300 μl/well of 1×PBS+0.1% Tween.
(§5) DELFIA® Eu-labelled Anti-human IgG (Perkin-Elmer) was diluted 1:500 in DELFIA Assay buffer (Perkin-Elmer) and added to the assay plate (50 μl/well), left to incubate for 1 hr at RT on a plate shaker. […] After incubation, assay was read on Envision plate reader (Perkin Elmer), Time-resolved fluorescence (TRF) was measured at 615 nm.

[3] = target: T2, mouse ICOS-mFc (Chimerigen); test: HTRF, mouse ICOS-mFc, competitor mouse B7-H2-Alexa 647, n2
Protocol: as §1, §2

[4] = target: T1, human ICOS-mFc (Chimerigen); test: DELFIA ELISA on coated human ICOS-mFc, N=3
Protocol: as §3, §4, §5

[5] = target: T3, mouse ICOS expressed on CHO cells (mouse, UniProt Q9WVS0 21-200); test: Flow cytometry on CHO-S mouse ICOS cells, anti-human IgG AF647, N=2
T3 construct: also called CHO-S cells transfected with mouse ICOS; mICOS
T3 sequence (looked up): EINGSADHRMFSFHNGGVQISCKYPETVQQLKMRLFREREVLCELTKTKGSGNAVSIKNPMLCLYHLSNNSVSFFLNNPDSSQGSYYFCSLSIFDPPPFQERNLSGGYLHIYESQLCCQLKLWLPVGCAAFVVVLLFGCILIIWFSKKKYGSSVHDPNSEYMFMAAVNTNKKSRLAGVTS
Protocol: CHO—S cells transfected with either human ICOS or mouse ICOS were resuspended in FACS buffer (PBS+1% w/v BSA+0.1% w/v sodium azide) and transferred to a 96-well V-bottom plate (Greiner) at a density of 1×10⁵ cells per well. mAb and mAb² were titrated in FACS buffer, 1 in 3 dilution across 11 points from a starting working concentration of 400 nM. Plates were centrifuged at 300×g for 3 minutes, supernatant discarded and 50 μL mAb or mAb² solution were added to cells and incubated at 4° C. for 1 hour. Cells were washed with 150 μL of PBS and centrifuged at 300×g for 3 minutes, supernatant was discarded and cell pellet resuspended in 150 μL PBS added. This wash step was repeated twice. Bound mAb or mAb² was detected by addition of 50 μL of anti-human 647 (Jackson ImmunoResearch) diluted to 3 ug/ml in FACS buffer. Cells were incubated for 1 hour at 4° C. in the dark. Cells were washed with 150 μL of PBS and centrifuged at 300 g for 3 minutes, supernatant was discarded and cell pellet resuspended in 150 μL PBS added. This wash step was repeated twice. Cells were fixed with 25 μL 4% v/v paraformaldehyde, incubated for 20 minutes at 4° C., cells were pelleted by centrifugation at 300×g and the supernatant discarded. […] AlexaFluor 647 signal intensity (geometric mean) was measured by flow cytometry using a Beckman Coulter CytoFLEX instrument.

[6] = target: T1, human ICOS-mFc (Chimerigen); test: DELFIA ELISA on coated human ICOS-mFc, N=2
Protocol: as §3, §4, §5

Row | Binder | IC50 [1] [nM] | EC50 [2] [nM] | IC50 [3] [nM] | EC50 [4] [nM] | EC50 [5] [nM] | EC50 [6] [nM]
1 | STIM003 (antibody, human IgG1, kappa, Anti-ICOS monospecific antibody, tested as human IgG1; also called STIM003 monoclonal IgG1 antibody) heavy: not shown light: EIVLTQSPGTLSLSPGERATLSCRASQSVSRSYLAWYQQKRGQAPRLLIYGASSRATGIPDRFSGDGSGTDFTLSISRLEPEDFAVYYCHQYDMSPFTFGPGTKVDIKRTVAAPSVFIFPPSDEQLKSGTASVVCLLNNFYPREAKVQWKVDNALQSGNSQESVTEQDSKDSTYSLSSTLTLSKADYEKHKVYACEVTHQGLSSPVTKSFNRGEC | 0.43 | 0.38 | 0.14 | 0.727 | 2.19 | 1.04
2 | STIM001 (antibody, human IgG1, kappa, Anti-ICOS monospecific antibody, tested as human IgG1; also called STIM001 monoclonal IgG1 antibody) heavy: not shown light: DIVMTQSPLSLPVTPGEPASISCRSSQSLLHSNEYNYLDWYLQKPGQSPQLLIFLGSNRASGVPDRFSGSGSGTDFTLKITRVEAEDVGIYYCMQSLQTPLTFGGGTKVEIKRTVAAPSVFIFPPSDEQLKSGTASVVCLLNNFYPREAKVQWKVDNALQSGNSQESVTEQDSKDSTYSLSSTLTLSKADYEKHKVYACEVTHQGLSSPVTKSFNRGEC | 0.96 | 11.4 | 8.91 | 41.3 | 5.06 | 25.5
